Results from patent US20110081661A1, “Modified photoproteins with increased affinity for calcium and enhanced bioluminescence and uses thereof” (Millipore Corporation, priority 2009, published 2011).

T1: GIP Receptor (Homo sapiens, UniProt P48546)
T1 construct: host or cells: HEK293T
T1 sequence (P48546 22-466): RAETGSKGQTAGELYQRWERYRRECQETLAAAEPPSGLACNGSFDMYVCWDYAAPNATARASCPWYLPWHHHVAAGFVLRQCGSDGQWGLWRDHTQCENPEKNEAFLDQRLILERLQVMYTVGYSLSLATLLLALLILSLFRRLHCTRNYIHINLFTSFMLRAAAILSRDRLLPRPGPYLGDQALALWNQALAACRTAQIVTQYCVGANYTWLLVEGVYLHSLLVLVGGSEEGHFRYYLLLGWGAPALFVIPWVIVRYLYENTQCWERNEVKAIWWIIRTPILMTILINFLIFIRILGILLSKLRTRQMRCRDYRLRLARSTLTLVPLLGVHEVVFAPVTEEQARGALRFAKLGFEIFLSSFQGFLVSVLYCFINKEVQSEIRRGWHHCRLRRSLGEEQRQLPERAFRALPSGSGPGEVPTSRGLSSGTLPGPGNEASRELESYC

B1: Mt-clytin K168D: Mitochondrial K168D modified Clytin, SEQ ID NO:10 (protein)
chain: MSVLTPLLLRGLTGSARRLPVPRAKIHSLPPEGKLRPNFDNPKWVNRHKFMFNFLDINGDGKITLDEIVSKASDDICAKLGATPEQTKRHQDAVEAFFKKIGMDYGKEVEFPAFVDGWKELANYDLKLWSQNKKSLIRDWGEAVFDIFDKDGSGSISLDEWKAYGRISGICSSDEDAEKTFKHCDLDNSGDLDVDEMTRQHLGFWYTLDPNADGLYGNFVP
B2: Mt-clytin K168E: Mitochondrial K168E modified Clytin, SEQ ID NO:12 (protein)
chain: MSVLTPLLLRGLTGSARRLPVPRAKIHSLPPEGKLRPNFDNPKWVNRHKFMFNFLDINGDGKITLDEIVSKASDDICAKLGATPEQTKRHQDAVEAFFKKIGMDYGKEVEFPAFVDGWKELANYDLKLWSQNKKSLIRDWGEAVFDIFDKDGSGSISLDEWKAYGRISGICSSDEDAEKTFKHCDLDNSGELDVDEMTRQHLGFWYTLDPNADGLYGNFVP
B3: Mt-aequorin: Mitochondrial Wild-type Aequorin (mt-Aequorin), SEQ ID NO:6 (protein, listed as Aequorea victoria)
chain: MSVLTPLLLRGLTGSARRLPVPRAKIHSLPPEGKLTSDFDNPRWIGRHKHMFNFLDVNHNGKISLDEMVYKASDIVINNLGATPEQAKRHKDAVEAFFGGAGMKYGVETDWPAYIEGWKKLATDELEKYAKNEPTLIRIWGDALFDIVDKDQNGAITLDEWKAYTKAAGIIQSSEDCEETFRVCDIDESGQLDVDEMTRQHLGFWYTMDPACEKLYGGAVP
B4: Cyto-clytin wt: Wild type Clytin (wt-Clytin) amino acid sequence, SEQ ID NO:1; cytosolic (protein, listed as Clytia gregaria)
chain: MADTASKYAVKLRPNFDNPKWVNRHKFMFNFLDINGDGKITLDEIVSKASDDICAKLGATPEQTKRHQDAVEAFFKKIGMDYGKEVEFPAFVDGWKELANYDLKLWSQNKKSLIRDWGEAVFDIFDKDGSGSISLDEWKAYGRISGICSSDEDAEKTFKHCDLDNSGKLDVDEMTRQHLGFWYTLDPNADGLYGNFVP

Legend:
[1] = molecular target: GIP (gastric inhibitory polypeptide) receptor (UniProt P48546); assay: cell-based or functional assay
H1 histamine receptor = molecular target: T2, H1 histamine receptor (Homo sapiens, UniProt P35367); assay: GPCR-mediated versus total bioluminescence in U-2OS cells (FIG. 4); type: cell-based; conditions: 10 μM histamine vs Triton X-100 with 1 mM calcium
T2 construct: expressed in transfected cells; host or cells: U-2OS
Procedure: In another experiment, the ability of the various photoproteins to detect calcium flux in live cells was assessed by adding varying concentrations of histamine to cells in order to activate the H1 histamine receptor followed by measurement of bioluminescence of the various photoproteins. U-2OS cells were transfected with a cDNA encoding H1 histamine receptor along with a cDNA encoding either a wild-type photoprotein or a modified photoprotein according to the invention, as described above in Example 2, except that Lipofectamine-2000 (INVITROGEN) was used as the transfection reagent. On the second day, the cells were trypsinized, counted, and plated in a white tissue-culture treated 96-well plate (COSTAR) at a density of about 50,000 cells/well in growth media consisting of DMEM containing 10% fetal bovine serum, non-essential amino acids, HEPES and penicillin/streptomycin. On the third day, the medium was removed and cells were washed once with 200 μl/well of HBSS/HEPES (containing Ca^2+). Cells were subsequently incubated with 5 μM coelenterazine in HBSS/HEPES (containing Ca^2+) in a volume of 200 μl/well, for 3-4 hours at room temperature in the dark. After incubation, the coelenterazine solution was removed and cells were washed and replaced with HBSS/HEPES buffer containing both Ca^2+ and Mg^2+. 50 μl/well of histamine at varying concentrations in HBSS/HEPES containing both Ca^2+ and Mg^2+ was added to the cells and total bioluminescence was measured at 20 seconds using a Victor2 luminometer.
In an exemplary experiment, U-2OS cells were transfected, plated and loaded with coelenterazine as described in Example 3. Luminescence induced by buffer alone or by 10 μM histamine was measured also as described in Example 3. Additionally, luminescence induced by addition of Triton X-100 in the presence of 1 mM calcium was also determined in order to assess the total amount of active photoprotein detectable using saturating calcium concentrations in cells.

[2] = Calcium EC50 of mitochondrially targeted photoproteins in HEK293T cells without cotransfected GPCR or G protein (Table II); type: cell-based; conditions: no cotransfected GPCR or G protein
From the text: (§1) In an exemplary experiment, HEK293T cells (ATCC-CRL-11268) were transiently co-transfected with 2 μgs of each of pcDNA3.1-H1 (containing the cDNA encoding the H1 histamine receptor) and pcDNA3.1 containing the cDNAs encoding wild type mitochondrial Clytin (referred to as mt-Clytin), modified mitochondrial Clytin having a lysine to aspartic acid mutation at position 168 (referred to as mt-Clytin K168D), modified mitochondrial Clytin having a lysine to glutamic acid mutation at position 168 (referred to as mt-Clytin K168E), wild-type mitochondrial Obelin (referred to as mt-Obelin) or wild type mitochondrial Aequorin (referred to as mt-Aequorin) using the Targefect-293 reagent (TARGETING SYSTEMS). 48 hours later, the cells were detached using Accutase (MILLIPORE), centrifuged, and resuspended in […] in FreeStyle293 media (INVITROGEN), for incubation for 3-4 hours at room temperature in the dark. After incubation, the cells were centrifuged and resuspended in HBSS/HEPES buffer without Ca^2+ at a density of 1×10^6 cells/ml. Next, 100 μl/well of cell suspension for each transfection were added by the use of a Victor2 luminometer plate reader (WALLAC, […]), to a 96-well plate containing 50 μL/well Triton X-100 in MOPS/KCl buffer containing 10 mM EGTA and a series of Ca^2+ concentrations, such that free calcium concentrations ranged from 17 nM to 39.6 μM, followed by for measurement of total bioluminescence at 20 seconds.
(§2) Signal to background ratio was calculated as the signal induced by maximal GIP (1 μM) divided by the signal induced by buffer alone. The EC50 value for calcium was determined as described above for FIG. 2 for mitochondrially targeted photoproteins transfected into HEK293T cells in the absence of a cotransfected GPCR or G protein. Affinity for calcium was correlated with the properties of the amino acid side chain at residue 168 of Clytin.

GIP Receptor = molecular target: T1, GIP Receptor; assay: GIP receptor-mediated bioluminescence in HEK293T cells with chimeric promiscuous G protein (FIG. 5, Table II); type: cell-based; conditions: for % GPCR/total: signal induced by maximal GIP (1 μM) as percentage of signal induced by Triton X-100 with 1 mM Ca^2+; for Signal: background with GIP: signal induced by maximal GIP (1 μM) divided by signal induced by buffer alone
Procedure: However, coexpression of GIP receptor with a chimeric G protein containing sequences from Gαs and Gαq enable the GIP receptor to stimulate calcium flux.
The results of the dose response curve to varying concentrations of GIP with a subset of the photoproteins are summarized in FIG. 5.
as §2
The EC50 value for receptor-mediated calcium flux induced by the ligand was determined by plotting luminescence (Y-axis) versus ligand concentration applied to the cells (X-axis), and applying a sigmoidal dose-response curve-fitting algorithm (GraphPad Prism). GPCR-mediated signals of the various modified forms of Clytin having an amino acid substitution at position 168 were also related to the nature of the side chain. In addition, the subcellular location of the photoproteins (cytosolic vs mitochondrial) appeared to have an effect on GPCR-mediated signals. […] All of the other mitochondrially targeted mutants except for Clytin K168R and wild-type Clytin yielded results that were in the range of those observed for wt-Aequorin.

[3] = Calcium affinity of mitochondrial photoproteins, transient co-transfection with H1 histamine receptor in HEK293T cells (FIG. 2); type: cell-based; conditions: HEK293T cells co-transfected with H1 histamine receptor; Triton X-100, free calcium 17 nM to 39.6 μM; total bioluminescence at 20 seconds; read-out: EC50 value (affinity for Ca^2+)
From the text: Following the generation of modified forms of Clytin, the various variants were compared with wt-Aequorin for their affinity for intracellular calcium in transient transfection assays using co-transfection with the H1 histamine receptor (Genbank Accession No. NM_000861, obtained by PCR using H1-specific primers from a human brain cDNA library, forward primer 5′-[…] ATTCCTC-3′ (SEQ ID NO:60), reverse primer 5′-[…] AATTCTC-3′ (SEQ ID NO:61).
as §1

[4] = HEK293T cells, GIP Receptor + promiscuous G protein
[5] = HEK293T cells, GIP Receptor + promiscuous G protein, luminescence vs GIP concentration

T2 sequence (P35367 whole entry): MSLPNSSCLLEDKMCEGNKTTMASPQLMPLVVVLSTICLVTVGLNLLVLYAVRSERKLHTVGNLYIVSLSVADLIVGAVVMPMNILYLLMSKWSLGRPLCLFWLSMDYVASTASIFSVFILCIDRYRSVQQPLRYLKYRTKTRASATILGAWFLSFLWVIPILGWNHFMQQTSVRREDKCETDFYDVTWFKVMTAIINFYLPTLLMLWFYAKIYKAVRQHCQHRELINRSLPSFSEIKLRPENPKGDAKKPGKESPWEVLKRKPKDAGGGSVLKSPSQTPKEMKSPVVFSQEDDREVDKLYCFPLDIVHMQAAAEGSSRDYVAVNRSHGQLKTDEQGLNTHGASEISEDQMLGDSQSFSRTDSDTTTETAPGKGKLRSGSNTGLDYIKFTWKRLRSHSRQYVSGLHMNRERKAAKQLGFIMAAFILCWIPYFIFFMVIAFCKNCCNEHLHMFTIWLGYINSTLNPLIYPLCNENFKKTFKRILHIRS

Molecule	GPCR-mediated signal as % of the total signal (H1 histamine receptor)	EC50 [2] [nM]	Max signal with GIP (RLU × 10^−5) (GIP Receptor; [4])	EC50 (GIP Receptor; [5]) [nM]	% GPCR/total (GIP Receptor) [%]	Signal: background with GIP (GIP Receptor)	EC50 [3] [nM]	other results
GIP (gastric inhibitory polypeptide) ligand (from UniProt P09681 52-93)								EC50 for GIP (nM); receptor-mediated calcium flux luminescence in HEK293T cells, reporter Cyto-aequorin [1]: 6.67 nM; EC50 for GIP (nM); receptor-mediated calcium flux luminescence in HEK293T cells, reporter Cyto-clytin K168D [1]: 4.01 nM; EC50 for GIP (nM); receptor-mediated calcium flux luminescence in HEK293T cells, reporter Cyto-clytin K168E [1]: 7.9 nM; EC50 for GIP (nM); receptor-mediated calcium flux luminescence in HEK293T cells, reporter Cyto-clytin wt [1]: 9.67 nM; EC50 for GIP (nM); receptor-mediated calcium flux luminescence in HEK293T cells, reporter Cyto-obelin [1]: 9.86 nM; EC50 for GIP (nM); receptor-mediated calcium flux luminescence in HEK293T cells, reporter Mt-aequorin [1]: 11.3 nM; EC50 for GIP (nM); receptor-mediated calcium flux luminescence in HEK293T cells, reporter Mt-clytin K168D [1]: 9.1 nM; EC50 for GIP (nM); receptor-mediated calcium flux luminescence in HEK293T cells, reporter Mt-clytin K168E [1]: 21.6 nM; EC50 for GIP (nM); receptor-mediated calcium flux luminescence in HEK293T cells, reporter Mt-clytin K168G [1]: 15.1 nM; EC50 for GIP (nM); receptor-mediated calcium flux luminescence in HEK293T cells, reporter Mt-clytin K168H [1]: 19.2 nM; EC50 for GIP (nM); receptor-mediated calcium flux luminescence in HEK293T cells, reporter Mt-clytin K168N [1]: 21 nM; EC50 for GIP (nM); receptor-mediated calcium flux luminescence in HEK293T cells, reporter Mt-clytin K168Q [1]: 17.4 nM; EC50 for GIP (nM); receptor-mediated calcium flux luminescence in HEK293T cells, reporter Mt-clytin K168R [1]: 29.1 nM; EC50 for GIP (nM); receptor-mediated calcium flux luminescence in HEK293T cells, reporter Mt-clytin K168S [1]: 15.4 nM; EC50 for GIP (nM); receptor-mediated calcium flux luminescence in HEK293T cells, reporter Mt-clytin K168T [1]: 13.4 nM; EC50 for GIP (nM); receptor-mediated calcium flux luminescence in HEK293T cells, reporter Mt-clytin K168V [1]: 16.8 nM; EC50 for GIP (nM); receptor-mediated calcium flux luminescence in HEK293T cells, reporter Mt-clytin K168Y [1]: 16.4 nM; EC50 for GIP (nM); receptor-mediated calcium flux luminescence in HEK293T cells, reporter Mt-clytin wt [1]: 12.9 nM; EC50 for GIP (nM); receptor-mediated calcium flux luminescence in HEK293T cells, reporter Mt-obelin [1]: 13.7 nM
B1	~100%	160	7.90	9.1	34.4	188.2	129	signal intensities, GIP dose response (FIG. 5) (GIP Receptor; HEK293T cells, GIP 10^−11 to 10^−6 M): significantly higher signal intensities than any of the wild-type photoproteins; Max signal with GIP (RLU × 10^−5) (GIP Receptor; HEK293T cells, GIP Receptor + promiscuous G protein, listed as mt-Clytin K168D): maximal signal; EC50 for GIP (nM) (GIP Receptor; [5]): lowest EC50; % GPCR/total (GIP Receptor; listed as mt-Clytin K168D): highest % GPCR/total; Signal: background with GIP (GIP Receptor; listed as mt-Clytin K168D): highest signal to background ratio
B2		176	6.07	21.6	19.8	120.8	173	
B3	about 70%	235	4.68	11.3	23.9	84.7	269	
B4	~3%		0.2	9.67	0.3	7.0		
